Substrate in this data set: Cc1cc(=O)oc2cc(NC(=O)[C@H](CCCNC(=N)N)NC(=O)CNC(=O)[C@H](CCC(N)=O)NC(=O)OC(C)(C)C)ccc12
Nature of the data set: Substrate KM for protease screen, FXII. In kind it is biochemical. The following applies: other: FXII. How it is done:
Crude macrocyclic libraries (4 mM DMSO stocks in 384-well LDV plates were transferred into 1536-well microtiter OptiPlates via ADE. Applied buffered solutions were prepared by filtration through PTFE syringe filters (0.22 μm) and assays were initiated by addition of protease (4.41 μl/well) in appropriate buffer (see list below) supplemented with bovine serum albumin (BSA; 0.1% w/v) and dispensed using a CERTUS automated liquid handler. Plates were incubated for 10 min at ambient temperature before fluorogenic substrate in appropriate buffer (4.5 μl) was added using a CERTUS automated liquid handler. Plates were centrifugated (800 g, 2 min) and fluorescence intensity was measured using a PHERAstar plate reader (excitation 384 nm, emission 440 nm) in time increments of 150 s over 15 min. Slopes of fluorescence increase (m) were calculated with Microsoft Excel (vers. 16.56). Negative controls were prepared without macrocycle. An average of 12 negative controls was used to calculate residual activities using Equation I below: […]
where [S]0 is the initial substrate concentration and KM is the Michaelis-Menten constant^12 for the enzyme and substrate.

B1: FXII (Homo sapiens) (protein)
chain: VVGGLVALRGAHPYIAALYWGHSFCAGSLIAPCWVLTAAHCLQDRPAPEDLTVVLGQERRNHSCEPCQTLAVRSYRLHEAFSPVSYQHDLALLRLQEDADGSCALLSPYVQPVCLPSGAARPSETTLCQVAGWGHQFEGAEEYASFLQEAQVPFLSLERCSAPDVHGSSILPGMLCAGFLEGGTDACQGDSGGPLVCEDQAAERRLTLQGIISWGSGCGDRNKPGVYTDVAYYLAWIREHTVS
For the protein B1, the Km amounted to 260 ± 40 µM.

A word on the Km: it is the concentration of substrate that gives half-maximal velocity.

Values taken from patent publication US20240279845A1, “METHOD FOR PREPARING A LIBRARY OF PEPTIDES OR A PEPTIDE” (ECOLE POLYTECHNIQUE FEDERALE DE LAUSANNE (EPFL), priority 2021, published 2024).
